# Data taken from the nanobody polyreactivity screen of Harvey et al. (2022).
# Experiment: yeast display, Sf9 membrane polyspecificity reagent, FACS + sequencing; frameworks hold sequencing errors
# In short: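 Genes from sorted yeast were amplified by colony PCR, read by MiSeq 2 × 250 sequencing and filtered on CDR length. These cells carried a synthetic nanobody library in Saccharomyces cerevisiae BJ5465 and were sorted by FACS into low and high (top ~1%) gates on anti-HA and streptavidin fluorescence. Polyreactivity is labelled according to the gate of origin.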
row,Sequence,polyreactivity (PSR sort gate)
1,QVQLVESGGGLVQAGGILRLSCAASGFTFNNYAMGWYRQAPGKERELVAAISSGAGTYYAESVKGRFTISRDNAKNTVYLQMNSLKPEDTGVYYCNASLKYQGRTRITYRHDYCGQGTQVTVSS,low polyreactivity
2,QVQLQESRGGLVQAGGSLRLSCAASGYISLAQTIGWYRQAPGKEREFVASIALGSSTYYTDSVKGSFTISRDNAKTTVYLQMISLQAEDTAVYYCAARVGASYAHDFWGQGTQVTVSS,low polyreactivity
3,QVQLVESGGGLVQAGGTLRLSCAPSGSIFRVYTMGWYRQAPGKERELVATISRSGVSTNYADSVKGRFTISRDNAKNTVYLQMNSLKPEDTAVYYCNAYYRTKGGFRFGYWGQGTQVTVSS,high polyreactivity
4,QVQLVESGGGLVQAGGSLSISCAASGITLGHNAMGWYRQAPGKDRELVAAISWSGDRTFYADSVKGRFTISRDNAKNTVYLQMNSLKPEDTAVYYCNAEIGWHNEGRLSTYDYWGQGTQVTVSS,low polyreactivity
5,QVQLVESGGGLVQPGGSLRISCAASGFTFVYYVMGWYRQAPGKERELVAAINAGGGSTYYADSVKGRFTISRDNAKNTVYLQMNSLKPEDTAVYFCNARVRVRLGRNWSSYYYWGQGTEVTVSS,high polyreactivity
6,QVQLVESGGGLVQAGGSLRLSCAASGIIFPSYAMGWYRQAPGKERELVAAINSSGGSTYYADSVKGRFTISRDNAKNTVYLQMNSLKPEDTAVYYCAAEADLQWYPYSFPYPYYYWGQGTQVTVSS,high polyreactivity
7,QVQLVESGGGLVQAGGSLRLSCAASGFIFRYYAMGWYRQAPGKERELVATISSGGGTHYADSVKGRFTISRDNAKNTVYLQMNSLKPEDTAVYYCNARGYRRLRTRVDYWGQGTQVTVSS,high polyreactivity
8,QVQLVESGGGLVQASGSLRLSCAASGLTFYLNAMGWYRPEHGKERELVAGISYTGGSTYYADSVKGRFTISRDNAKNTVYLQMNSLKPEDTAVYSCARDNFYYGVWDYGYWGQGTQVTVSS,low polyreactivity
9,QVQLVESGGGLVQAGGSLRLICAASGITFLRYAMGWYRQAPGKERELVAAISTRGGSTYYADSVKGRFTISRDNAKNTVYLQMNSLKPEDTAVYYCAAAGVTGSYGGKGRWYDFWGQGSQVTVSS,high polyreactivity
10,QVQLVESGGGLVQAGGSLRLSCAASGRILLRYAMGWYRQAPGQERELVAAISQRGGRTYYADSVKGRFTISRDNAKNTVNLQMNSLKPEDTAVYYCAAASQQRSPRYGYWGQGTQVTVSS,high polyreactivity
11,QVQLVESGGGLVQAGGSLRLSCAASGRIFTTYAMGWYRQAPGKERELVARISSGGTTYYADSVQGRFTISRDNAKNTVYLQMNSLKPEDTAVYYCNVRAVTPTRSRPFRYDYWGQGTQVTVSS,high polyreactivity
12,QVQLVESGGGLVQAGGSLRLSCAASGSTLYAYAMGWYRQAPGKERELVASIPAGGITHYADSVKGRVTISRDNANNTVYLHMISLKPEDTAVDYCNTVAYLRRFDKWGMNYWGQGTQVTVSS,low polyreactivity
13,QVQQQESGGGLVQAGGSLRLSCAASGSISRLDYMGWYRQATGKERELVAAIDNGSTTYYADSVKGRLTISRDNAKYTVYLQMNSLKPEDNAVYFCAAVRGRGGTHAYWGQGTQVTVSG,low polyreactivity
14,QVQLVESGGGLVQAGGSLRLSCAASGRTLGGNAMGWYRQAPGKERELVAAITNSASTYADSVKGRFTISRDNAKNSVYLQMNSLKPEDTAVYYCNAPVPSDQHGDYWGQGTQVTVSS,low polyreactivity
15,QVKLVETGGGLVQAGGSLRLSCAASGFIFYKYAMGWYRQAPGKERELVASITSGGITNYADSVKGRFTISRDNAKNTVYLQMNSLKPVDTAVYYCNVRWYSRWLITTDYNYWGQGTQVTVSS,high polyreactivity
16,QVQLVESGGGLGQAGGSLRLSCAASGRTLGIYAMGWYRQAPGKERELVAAITWSGGSTYYADSVKGRFTISRDNAKNTVYLQMNSLKPEDTAVYYCNVRSGGKRRNSGRVDYWGQGTQVTVSS,low polyreactivity
17,QVQLVESGGGLVQAGGSLRLSCAASGSIFVVYTMGWYRQAPGKERELVAAITQNGGSSTYYADSVKGRFTISRDNAKNTVYLQMNSLKPEDTAVYYCNKDILSPVVRIFKYGYDMDYWGQGTQVTVSS,low polyreactivity
18,QVQLVESGGGLVQAGGSLRLSCAASGFTFETNAMGWYRQAHGKERELVATITGGGSTNYADSVKGRFTISRDNAKNTVYLQMNSLKPEDTAVYYCNAVHEASYAGVDYWGQGTQVTVSS,low polyreactivity
19,QVQLEESGGGLVQAGGSLRLSCAASGFTFRRYAMGWYRQAPGKERELVAAITRSGSSTYYADSVKGRFTISRDNAKNTVYLQMNSLKPEDTAVYYCARYHLRPTDGFDYWGQGTQVTVSS,high polyreactivity
20,QVQLVESGGGLVQAGGSLRLSCAASGRIFGANAMGWYRQAPGKERELVAAISGSGGRTYYADSVKGRFTISRDNAKNTVYLQMNSLKPEDTAVYYCAAGRPTYSRYFGFEYWGQGTQVTVSS,high polyreactivity

row,Sequence,polyreactivity (PSR sort gate)
1,QVQLVESGGGLVQAGGSLRLSCAASGSIFSSNAMGWYRQAPGKERELVAAITSSGTRTYYADSVKGRFTISRDNAKNTVYLQMNSLKPEDTAVYYCATRLRRSDHRYPYDYWGQGTQVTVSS,low polyreactivity
2,QVQLVESGGGLVQAGGSLRLSCAASGSIFVTNAMGWYRQAPGKERELVAAIRWSGDSTYYADSVKGRFTISRDNAKNTVYLQMKSLKPEDTAVYYCDAESFRYIRLNYKYGDYYWGHGTQVTVSS,high polyreactivity
3,QVQLVDSGGGLVQAGGSLRLICAASGITFRHYAMGWYRTAPGKERELVAAITRRGGSTRYADSVKGRFTISRDNAKNTVYLQMNSLKPEDTAVYYCNAVYWSEGDWSERRDYWGQGTQVTVSS,high polyreactivity
4,QVQLVESGGGLVQAGGSLRLICAASGRIFGVYAKGWYRQAPGKERDFVATNSNRGGGSTYYADSVKGRFTISRDNAMNTVYLQMNSLKPEDTSVYYCNVRARYPFGYDYWGQGTQVTVSS,high polyreactivity
5,QVQLVESGGGLVQAGGSLRLSCAASGIIFRWYVMGWYRQAPGKERELVAAISYRRGSTNYADSVKGRFTISRDNAKNTVYLQMNSLKPEDTAVYYCNRVPYPGSRRKYDYWGQGTQVTVSS,high polyreactivity
6,QVQLVESGGCLVQAGGSLRLSCAASGRTFRYYAMGWYRQAPGRERELVAAIRRAGSTTYADSVKGRFTISRDNAKNTVYLQMNSLKPEDTAVYYCIARRYGYGYALDYWGQGTQVTVSS,high polyreactivity
7,QVQLVESGGGLVQAGGSLRLSCAASGSIFTDYTMGWYRQAPGKERELVAAISWIGDSTDYADSVKGRFTISRDNAKNTVYLQMNSLKPEDTAVYYCAKSRAGRYNDYDYWGQGTQVTVSS,low polyreactivity
8,QVQLVESGGGLVQAGGILRLSCAASGRIIQRYAMGWYRQAPGKERELVAAISSSGVSTYYADSVKGRFTISRDNAKNTVYLQMNSLKPEDTAVYYCNAVSSRVYRDYGYDYWGQGTQVTVSS,low polyreactivity
9,QVHLVESGGGLVQAGGSLRLSCAASGFIFQYYAMGWYRQAPGKEREMVAAINRGGGTHYADSVQGRFTISRDNAKNTVYLQMNSLKPEVTAVYYCNKVYYWPGSRPSRYEYWGQGTQVTVSS,low polyreactivity
10,QVQLVESGGGIVQAGGSLRLSCAASGLTFRKYAMGWYRQAPGKERELVAAIRFRGGSTYYADSVKGRFTISRDNAKNTVYLQMNSLKPEDTAVYYCNTAPVGLLYGRYDYWGEGTQVTVSS,high polyreactivity
11,QVQLVESGGGLVQAGGSLRLSCASSGRTFLVNAMGSYRPAPGKERELVAAISQSGGSTYYADSVKGRFTISRDNAKNTVYLQMNCLKPVDTEVYYCAAELINDYYWGQGTQVSVSS,low polyreactivity
12,QVQLVESGGGLVQAGGSLRLSCAASGFIFKIYAMGWYRQAPGKERELVAAISSGDNTNYADSVKGRFTISRDNAKNTVYLQMNSLKPEDNAVYYCAALRYTYLGQLQWSRSGRYDYWGQGTQVTVSS,high polyreactivity
13,QVQLVESGGGLVQAGGSLRLSCAASGRSFESYAMGWYRQAPGKERELVAAITWSGGDTYYADSVKGRFTISRDNAKNTVYLQMNSLKPEDTAVYYCAKEQGLYSVSPYDYWGQGTQVTVSS,low polyreactivity
14,QVQLVESGGGLVQAGGSLRLSCAASGSIFITYAMGWYRQAPGKERELVAAITDSGDSTYYADSVKGRFTISRDNAKNTVYLQMISLKPEDTAVYYCAKRYYGSYSHFIRTDGYWGQGTQVTVSS,low polyreactivity
15,QVQLVESGGGLVQAGGILRLSCAASGLTYFYYAMGWYRQAPGKESELVAAISWSGGRTYYADSVKGRFTISRDNAKNTVYLPMNSLKPEDTAVYYCAADYITAHSSYSTYGYWGQGTQVTVSS,low polyreactivity
16,QVQLVESGGGLVQAGVSLRLSCAASGSIFGHYAMGWYRQAPGKERELVAAISWSGTSTYYADSVKGRFTISRDNAKNTVYLQMNSLKPEDTAVYYCNVVYRVVSPSGGGYWGQGTQVTVSS,high polyreactivity
17,QVQLVESGGGLVQAGGILRLSCASSVTFFMGWYRQAPGKEWELVAGISISDVSTYYADSVKGRFTISRDNAKNTVYLQMNSLKPEDTAVYYCAAEFYPTTGFDYWGQGTQVTVSS,low polyreactivity
18,QVQLVESGGGLVQAGGSLRLSCAASGRIFPFYDMGWYRQAPGKEREFVARITLSGGSTYYADSVMGRFTISRDNAKNTVNLQMNSLKPEDTSVYYCSADRTSWSVLDFDYWGQGTQVTVSS,low polyreactivity
19,QVQLVESGGGLVQAGGSLRLSCAASGLIFGYNAMGWYRQAPGKERELVAAISRRGTSTYYADSVKGRFTISRDNAKNTVYLQMNSLKPEDTAVYYCATYGVNPPGVEEYNYWGQGTQVTVSS,high polyreactivity
20,QVQLVESGGGLVQAGGSLRLSCAASGGIFAVYAMGWYRQAPGKERELVAAITWRGGSTRYADSVKGRFTISRDNAKTTVYLQMNSLKPEDTAVYYCAVRSTGYPSRYYFWGQGTQVTVSS,high polyreactivity
